Target: recombinant Phl p 2 (Biomay AG) (UniProt P43214)
Assay: flow cytometry scatter plot on 16HBE14o- cells pre-incubated with 1 µg of the conjugate at ratio 1:0.25, then 1 µg Phl p 2, rabbit anti-Phl p 2 (FIG. 3 C)

UniProt P43214, sequence (P43214 27-122 limits assumed): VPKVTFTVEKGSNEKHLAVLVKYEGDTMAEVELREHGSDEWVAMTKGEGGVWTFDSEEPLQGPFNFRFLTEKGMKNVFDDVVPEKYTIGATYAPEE

- percent of cells with Phl p 2 bound to their cell surface: 50%
Substance: P2/ICAM1 bi-specific antibody conjugate (streptavidin-conjugated Phl p 2-specific human IgG1 coupled to biotin-labeled ICAM1-specific mouse IgG1) (from UniProt P22629 37-163) (bispecific antibody)
